Tests used:
Test in all cases: flow cytometry, HEK293F cells transiently expressing the target, 100 nM antibody, PE anti-human Fc; Mean (PE-A against FITC-A, GFP surrogate)
[1] = target: human TIM3 expressed on HEK293F cells (human) (UniProt Q8TDQ0)
[2] = target: human LAG3 expressed on HEK293F cells (human) (UniProt P18627)
[3] = target: human B7-H3 expressed on HEK293F cells (human) (UniProt Q5ZPR3)
[4] = target: human PD-L1 expressed on cell surface (human) (UniProt Q9NZQ7)
[5] = target: mouse PD-L1 expressed on HEK293F cells (mouse) (UniProt Q9EP73)
Sequence of mouse PD-L1 expressed on HEK293F cells (mouse) (Q9EP73 19-290): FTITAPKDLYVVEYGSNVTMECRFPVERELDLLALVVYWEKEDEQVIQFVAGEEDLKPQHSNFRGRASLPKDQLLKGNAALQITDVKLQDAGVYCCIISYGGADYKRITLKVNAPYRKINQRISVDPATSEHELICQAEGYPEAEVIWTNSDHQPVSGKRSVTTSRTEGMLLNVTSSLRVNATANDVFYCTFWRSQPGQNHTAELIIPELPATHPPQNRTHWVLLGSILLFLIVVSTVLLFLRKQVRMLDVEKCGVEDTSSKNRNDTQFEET

[6] = target: human PD1 expressed on HEK293F cells (human) (UniProt Q15116)
Sequence of human PD1 expressed on HEK293F cells (human) (Q15116 25-288): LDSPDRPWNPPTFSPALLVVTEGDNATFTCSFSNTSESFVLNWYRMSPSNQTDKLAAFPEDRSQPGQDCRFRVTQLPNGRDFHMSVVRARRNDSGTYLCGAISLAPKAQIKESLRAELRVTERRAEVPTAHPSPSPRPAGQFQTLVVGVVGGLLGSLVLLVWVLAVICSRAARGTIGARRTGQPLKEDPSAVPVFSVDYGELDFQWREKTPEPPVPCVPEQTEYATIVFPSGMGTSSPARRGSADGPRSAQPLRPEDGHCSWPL

[7] = target: human CTLA4 expressed on HEK293F cells (human) (UniProt P16410)
Sequence of human CTLA4 expressed on HEK293F cells (human) (P16410 36-223): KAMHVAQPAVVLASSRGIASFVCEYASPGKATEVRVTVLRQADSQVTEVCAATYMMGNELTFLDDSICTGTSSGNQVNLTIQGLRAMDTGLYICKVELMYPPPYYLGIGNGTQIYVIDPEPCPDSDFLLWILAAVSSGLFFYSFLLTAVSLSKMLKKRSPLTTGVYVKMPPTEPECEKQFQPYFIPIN

[8] = target: rhesus PD-L1 expressed on HEK293F cells (rhesus) (UniProt F6VEW6)

Sequence of human B7-H3 expressed on HEK293F cells (human) (Q5ZPR3 29-534): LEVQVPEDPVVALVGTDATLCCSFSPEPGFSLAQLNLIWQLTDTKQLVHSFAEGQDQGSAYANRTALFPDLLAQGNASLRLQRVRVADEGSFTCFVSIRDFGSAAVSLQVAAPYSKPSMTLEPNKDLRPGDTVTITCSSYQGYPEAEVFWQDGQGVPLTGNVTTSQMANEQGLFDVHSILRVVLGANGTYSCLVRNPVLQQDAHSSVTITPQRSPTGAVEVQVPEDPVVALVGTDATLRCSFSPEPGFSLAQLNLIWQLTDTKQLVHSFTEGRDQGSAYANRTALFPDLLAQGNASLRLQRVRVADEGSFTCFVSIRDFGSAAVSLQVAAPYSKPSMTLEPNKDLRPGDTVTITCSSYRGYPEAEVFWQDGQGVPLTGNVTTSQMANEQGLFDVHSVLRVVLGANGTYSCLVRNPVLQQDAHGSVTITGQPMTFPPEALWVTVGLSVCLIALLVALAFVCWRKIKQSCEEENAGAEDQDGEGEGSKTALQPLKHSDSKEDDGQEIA
Sequence of human PD-L1 expressed on cell surface (human) (Q9NZQ7 19-290): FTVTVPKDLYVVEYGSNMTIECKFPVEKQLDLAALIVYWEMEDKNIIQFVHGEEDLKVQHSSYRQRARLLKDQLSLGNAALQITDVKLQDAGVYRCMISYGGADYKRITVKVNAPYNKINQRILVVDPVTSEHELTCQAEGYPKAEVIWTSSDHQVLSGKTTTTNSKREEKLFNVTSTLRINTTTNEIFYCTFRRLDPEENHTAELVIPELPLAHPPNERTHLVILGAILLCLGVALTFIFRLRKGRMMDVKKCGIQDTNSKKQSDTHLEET
Sequence of human LAG3 expressed on HEK293F cells (human) (P18627 23-525): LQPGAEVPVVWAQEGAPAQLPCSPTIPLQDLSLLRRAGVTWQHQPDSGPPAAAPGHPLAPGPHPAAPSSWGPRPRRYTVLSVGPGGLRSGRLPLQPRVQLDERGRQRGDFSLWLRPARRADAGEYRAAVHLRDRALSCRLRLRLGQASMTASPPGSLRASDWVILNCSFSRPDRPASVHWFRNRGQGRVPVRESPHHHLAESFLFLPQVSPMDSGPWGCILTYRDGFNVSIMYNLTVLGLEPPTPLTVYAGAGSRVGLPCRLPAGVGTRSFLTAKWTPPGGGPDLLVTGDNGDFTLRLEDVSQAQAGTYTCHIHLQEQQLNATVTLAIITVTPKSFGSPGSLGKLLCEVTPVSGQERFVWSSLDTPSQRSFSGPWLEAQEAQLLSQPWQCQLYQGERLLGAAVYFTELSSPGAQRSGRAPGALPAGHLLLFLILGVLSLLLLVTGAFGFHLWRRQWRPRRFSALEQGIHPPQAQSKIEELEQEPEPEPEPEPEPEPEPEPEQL

Mean [1]: 2280
Mean [2]: 2440
Mean [3]: 2690
Mean [4]: 2470
Mean [5]: 3030
Mean [6]: 3050
Mean [7]: 2480
Mean [8]: 2520
Substance: Isotype control (antibody)

— patent US20210122824A1
